Consider one substance from patent publication US20230321260A1.

This test deals with MBP-RumTrunkD9NTag. Description: isopeptide coupling to RumTrunkD9NTag-MBP, 5 uM each, 37 C, SDS gel (time given as 50 minutes and as 3 h).

The substance SpyCatcher-VLP gave a Percentage reconstitution of 11.9%.
